Assay results as given in publication PMC5624674 (2017).

B1: λCI-ZipACTD (residues 186–328) [E. coli] / α-FtsZ fusion protein (wild-type E. coli FtsZ) [E. coli] (parent complex)
chain 1: not shown
chain 2: MFEPMELTNDAVIKVIGVGGGGGNAVEHMVRERIEGVEFFAVNTDAQALRKTAVGQTIQIGSGITKGLGAGANPEVGRNAADEDRDALRAALEGADMVFIAAGMGGGTGTGAAPVVAEVAKDLGILTVAVVTKPFNFEGKKRMAFAEQGITELSKHVDSLITIPNDKLLKVLGRGISLLDAFGAANDVLKGAVQGIAELITRPGLMNVDFADVRTVMSEMGYAMMGSGVASGEDRAEEAAEMAISSPLLEDIDLSGARGVLVNITAGFDLRLDEFETVGNTIRAFASDNATVVIGTSLDPDMNDELRVTVVATGIGMDKRPEITLVTNKQVQQPVMDRYQQHGMAPLTQEQKPVAKVVNDNAPQTAKEPDYLDIPAFLRKQAD

Variants of: B1
Experiment: bacterial two-hybrid β-galactosidase assay; 25 μM IPTG; parent: 720; read off a plot

| Variant | response |
| --- | --- |
| chain 2 L179R | ~880 Miller Units |
| chain 2 F182S | ~770 Miller Units |
| chain 2 D180N | ~770 Miller Units |
| chain 2 L169P | ~790 Miller Units |
| chain 2 S177P | ~790 Miller Units |
